Patent publication US20110112279A1 (Genentech, published 2011)

Legend:
[1] = target: T1, human STOP-1 short form (L94-K243) with C-terminal His tag, baculovirus expressed (human, UniProt Q96CG8 94-243); assay: solution competition phage ELISA (762 S/S), short form coated and short form as competitor; ND = not detectable
T1 construct: also called #94-243; L94-K243-His
Experimental: (§1) The wells were blocked by adding 65 ul 1% BSA for 30 minutes followed by 40 ul 1% Tween20 for another 30 minutes. Next, the wells were washed with PBS—0.05% Tween20 5 times. Various dilutions of F(ab) or F(ab)′₂ phage down to 0.1 O.D./ml in ELISA buffer (PBS—0.1% BSA and 0.05% Tween20) were added to the wells for 15 minutes at room temperature. The wells were then washed with PBS—0.05% Tween20 at least three times. 75 ul of HRP-conjugated anti-M13 antibody (Amersham, 1/5000 dilution with ELISA buffer) per well was added and incubated at room temperature for 30 minutes. The wells were washed again with PBS—0.05% Tween20 at least five times. Next, 100 ul/well of a 1:1 ratio of 3,3′,5,5′-tetramethylbenzidine (TMB) Peroxidase substrate and Peroxidase Solution B (H₂O₂) ((Kirkegaard-Perry Laboratories (Gaithersburg, Md.)) was added to the well and incubated for 5 minutes at room temperature. The reaction was stopped by adding 100 ul 1M Phosphoric Acid (H3PO₄) ((Kirkegaard-Perry Laboratories (Gaithersburg, Md.)) to each well. The optical density of the color in each well was determined using a standard ELISA plate reader at 450 nm. The dilutions of phage were plotted against the O.D. readings.
Third, a competition ELISA was performed. 96-well Nunc Maxisorp plates were coated with full length or short form human STOP-1 (2 ug/ml in PBS) at 4° C. overnight or at room temperature for 2 hours. […]

[2] = target: T2, human STOP-1, full length, C-terminal 8xHis tag (h762HIP; M1-K243-His), expressed in CHO-psgb cells (human, UniProt Q96CG8 31-243); assay: solution competition phage ELISA (762 S/F): short form coated, phage pre-incubated with full length STOP-1 in solution; IC50 is the STOP-1 concentration
T2 construct: The secreted protein purified from medium lacks the signal peptide; Light scattering: about 58% hexamer and 42% trimer; also called UNQ762; full length form
T2 sequence (Q96CG8 other isoform, or with tags, fused parts or gaps limits assumed): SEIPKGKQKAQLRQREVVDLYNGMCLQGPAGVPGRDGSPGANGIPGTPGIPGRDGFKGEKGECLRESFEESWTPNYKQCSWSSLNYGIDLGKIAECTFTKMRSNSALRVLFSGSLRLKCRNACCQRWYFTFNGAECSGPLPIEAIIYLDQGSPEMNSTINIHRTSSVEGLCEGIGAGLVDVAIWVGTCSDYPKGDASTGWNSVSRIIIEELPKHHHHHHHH
Experimental: as §1
Third, a competition ELISA was performed. 96-well Nunc Maxisorp plates were coated with full length or short form human STOP-1 (2 ug/ml in PBS) at 4° C. overnight or at room temperature for 2 hours. The wells were blocked by adding 65 ul 1% BSA for 30 minutes followed by 40 ul 1% Tween20 for another 30 minutes. The wells were washed with PBS—0.05% Tween20 5 times. […] The unbound phage was assayed by transferring 75 ul of the well mixture to second 96-well plate pre-coated with full length or short form human STOP-1 and incubating at room temperature for 15 minutes. The wells of the second plate were washed with PBS—0.5% Tween20 at least three times. 75 ul of HRP-conjugated anti-M13 antibody ( 1/5000 dilution with ELISA buffer) per well was added and incubated at room temperature for 30 minutes. The wells were washed again with PBS—0.05% Tween20 at least five times.

T1 sequence (Q96CG8 94-243): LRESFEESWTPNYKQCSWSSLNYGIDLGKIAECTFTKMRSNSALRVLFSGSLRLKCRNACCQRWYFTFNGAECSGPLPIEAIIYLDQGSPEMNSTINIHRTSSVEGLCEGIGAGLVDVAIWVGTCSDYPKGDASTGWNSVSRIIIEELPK

B1: F5 F(ab)'2 displayed on M13 phage (V0350-4-F5) (other)
light: SDIQMTQSPSSLSASVGDRVTITCRASQDVSTAVAWYQQKPGKAPKLLIYSASFLYSGVPSRFSGSGSGTDFTLTISSLQPEDFATYYCQQSYTTPPTFGQGTKVEIKRTVAAPSVFIFPPSDEQLKSGTASVVCLLNNFYPREAKVQWKVDNALQSGNSQESVTEQDSKDSTYSLSSTLTLSKADYEKHKVYACEVTHQGLSSPVTKSFNRGECGASSGMADPNRFRGKDLA
heavy: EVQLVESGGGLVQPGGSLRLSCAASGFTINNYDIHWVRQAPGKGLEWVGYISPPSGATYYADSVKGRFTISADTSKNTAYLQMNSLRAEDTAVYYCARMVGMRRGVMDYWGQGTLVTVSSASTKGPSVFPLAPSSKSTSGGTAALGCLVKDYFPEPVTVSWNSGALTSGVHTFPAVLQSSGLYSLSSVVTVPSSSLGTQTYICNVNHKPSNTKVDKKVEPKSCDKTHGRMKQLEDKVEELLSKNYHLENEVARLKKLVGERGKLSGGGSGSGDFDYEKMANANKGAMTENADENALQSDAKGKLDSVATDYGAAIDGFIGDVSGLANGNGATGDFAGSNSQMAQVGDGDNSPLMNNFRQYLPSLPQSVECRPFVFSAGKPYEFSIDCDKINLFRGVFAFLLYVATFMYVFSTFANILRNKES
notes: also called F5-F(ab)'2-phage; F(ab)'2-F5 phage
binding result [1]: no binding (tested: 0.1 to 500 nM competitor) | IC50 [2]: 1000 nM
